The target of this experiment is Recombinant SARS-CoV-2 S trimer (SARS-CoV-2) (UniProt P0DTC2). Briefly: MST.

Usually Kd stands for the concentration at which binding is half-saturated. For the substance “Recombinant L-SIGN/CD299 (from UniProt Q9H2X3 1-399) (receptor)”, the Kd amounted to 43.7 nM.

Regarding “Recombinant DC-SIGN/CD209 (from UniProt Q9NNX6 1-404) (receptor)”, the dissociation constant Kd stood at 28.8 nM.

(Values after paper PMC8582233.)
